PMC3459857 (Molecular Biology of the Cell, 2012)
Values belong to the molecule of their own block, whether it stands above or below them.

Assays:
[1] = target: Capu-NT, the N-terminal half of Cappuccino (aa 1–466) (Drosophila) (UniProt Q24120)
Capu(1–321) (Drosophila) = Capu(1–321) (Drosophila) (UniProt Q24120)
[2] = target: T1, Capu-CT, the C-terminal half of Cappuccino (aa 467–1059) (Drosophila, UniProt Q24120 467-1059); assay: cell-based or functional assay
T1 sequence (looked up): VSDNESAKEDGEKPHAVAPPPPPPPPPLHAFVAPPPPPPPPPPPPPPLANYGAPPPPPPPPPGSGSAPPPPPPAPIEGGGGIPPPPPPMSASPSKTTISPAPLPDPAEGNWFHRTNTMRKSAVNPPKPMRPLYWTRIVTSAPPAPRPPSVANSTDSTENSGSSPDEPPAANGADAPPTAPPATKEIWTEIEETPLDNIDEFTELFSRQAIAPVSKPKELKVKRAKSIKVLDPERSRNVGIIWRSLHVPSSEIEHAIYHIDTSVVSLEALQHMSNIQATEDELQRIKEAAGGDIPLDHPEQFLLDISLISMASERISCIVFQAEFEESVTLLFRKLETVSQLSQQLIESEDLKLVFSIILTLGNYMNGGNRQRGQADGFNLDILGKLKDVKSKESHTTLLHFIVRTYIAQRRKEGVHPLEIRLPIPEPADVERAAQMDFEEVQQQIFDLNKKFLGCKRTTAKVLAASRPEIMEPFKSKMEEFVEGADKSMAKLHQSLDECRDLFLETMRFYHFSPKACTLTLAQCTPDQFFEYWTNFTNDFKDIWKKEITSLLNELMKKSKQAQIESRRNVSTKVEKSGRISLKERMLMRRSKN

[3] = target: Capu-tail–Alexa Fluor 488 (Drosophila); assay: fluorescence polarisation
AUC = target: the molecule itself; assay: AUC
SEC-MALS = target: the molecule itself; assay: SEC-MALS

EC50 of relief of Capu(1–321) inhibition of Capu-CT in the pyrene-actin assay (Capu(1–321) (Drosophila)): 3000 nM
Molecule: Capu-tail (monomeric peptide cleaved from GST–Capu-tail)

inhibition activity in the pyrene-actin assay relative to Capu-NT, at 100 nM [2]: ~40% | Kd [3]: 4800 nM
B1: Capu(1–222) (domain or fragment, Drosophila, UniProt Q24120 1-222, looked up)
chain: MALQLGKKLAQVLGSGAGSPLTPGTMEPCAAGSGSPLANGELFNVSKAKKVELQNLSSRFTAAVTQTPPGVTSSTPNESGVTGPAGPLGATTSSPSLETQSTVIISFKSSQTPVQSQTNSAASENVEDDTAPLPLPPPPPGFGTPTTPLLSSNVLKKVASFTVEKSSAGNNSSNPPNLCPTSDETTLLATPCSSSLTVATLPPEIAVGAAAGGVAGGAGSRR

Kd [3]: 300 nM
B2: Capu-NT, the N-terminal half of Cappuccino (aa 1–466) (domain or fragment, Drosophila, UniProt Q24120 1-466, looked up)
chain: MALQLGKKLAQVLGSGAGSPLTPGTMEPCAAGSGSPLANGELFNVSKAKKVELQNLSSRFTAAVTQTPPGVTSSTPNESGVTGPAGPLGATTSSPSLETQSTVIISFKSSQTPVQSQTNSAASENVEDDTAPLPLPPPPPGFGTPTTPLLSSNVLKKVASFTVEKSSAGNNSSNPPNLCPTSDETTLLATPCSSSLTVATLPPEIAVGAAAGGVAGGAGSRRGSSYVPEKLSFAAYEKFEGQMLIKWLISTMQSNPKSSSGDANQELFNTLALQFCNNLKYVGVLKQISNEHLDCGFSPYEMYQWTHTEQPTTSLPLTPGKLDKVAAWPFSSTPSGIRALESASLASLGAGGVAGSLATIATASTASSDNQKTLQQILKKRLLNCTTLAEVHAVVNELLSSVDEPPRRPSKRCVNLTELLNASEATVYEYNKTGAEGCVKSFTDAETQTESEDCEGTCKCGQSSTK
Kd (AUC): 245 nM | stoichiometry N (AUC): 2

Continued, molecule first:

Molecule: GST–Capu-tail (dimeric) (domain or fragment)
Kd calculated from the pyrene-actin competition assay (Vinson analysis) [1]: 167 nM

B3: Capu(1–321) (domain or fragment, Drosophila, UniProt Q24120 1-321, looked up)
chain: MALQLGKKLAQVLGSGAGSPLTPGTMEPCAAGSGSPLANGELFNVSKAKKVELQNLSSRFTAAVTQTPPGVTSSTPNESGVTGPAGPLGATTSSPSLETQSTVIISFKSSQTPVQSQTNSAASENVEDDTAPLPLPPPPPGFGTPTTPLLSSNVLKKVASFTVEKSSAGNNSSNPPNLCPTSDETTLLATPCSSSLTVATLPPEIAVGAAAGGVAGGAGSRRGSSYVPEKLSFAAYEKFEGQMLIKWLISTMQSNPKSSSGDANQELFNTLALQFCNNLKYVGVLKQISNEHLDCGFSPYEMYQWTHTEQPTTSLPLTPGK
stoichiometry N (SEC-MALS): 2 | Kd [3]: 300 nM
